# Source: the nanobody polyreactivity screen of Harvey et al. (2022)
# Test: yeast display, Sf9 membrane polyspecificity reagent, FACS + sequencing; frameworks hold sequencing errors
# Summary of the method: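 Using colony PCR, genes from sorted yeast display clones were amplified, then sequenced on MiSeq at 2 × 250 and filtered by CDR length. The clones had been stained with 10% biotinylated, detergent-solubilized Sf9 membrane reagent for 1 hour at 4 °C and sorted by FACS into low and high (top ~1%) gates on anti-HA and streptavidin fluorescence. Polyreactivity labels come from the gate of origin.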
row,Sequence,polyreactivity (PSR sort gate)
1,QVQLVESGGCLVQAGRSLRLSCAASGIIFGGNVMGWYRQAAGKERQLVAAINWSVVTTYYADSVKGRFTISRDNAKNTVYLQMNSLKAADTAVYYCNKDYVTAPYFYFIDTMDYWGQGTQGTVSS,low polyreactivity
2,QVQLVESGGDLVQAGGSLRLSCAASGRTFRYYAMGWYRLAPGKERELVAAISSSGDRTYYADSVKGRFTISRDTAKNTVYLQLNSLKPEDTAVYYCAADRGARGDYCGQGTQVTVSS,high polyreactivity
3,QVQLVESGGDLVQAGGSLRLSCAASGRTFSANGMGWYRQAPGKERELVAAITRSGGITYYADSVKGRFTISRDNAKNTVYLQMNSLKPEDTAVYYCAASVYSLSRRSWMDYWGQGTQVTVSS,low polyreactivity
4,QVQLVESGGDLVQAGGSLRLSCAATGYTFLRYTMGWYRQAPGKERELVAAITSGTSTYYADSVKGRFTISRDNEKNTVYLQMNSLKPEDTAVYYCDKTPTRQRYGHWGQGTQVTVSS,high polyreactivity
5,QVQLVESGGGCSGGRSLRLSCAASGLIFVDNAMGWYRQAPGKERELVAAITWSTGSTYYADSVKGRFTISRDNAKNTVYLQMNSLKPEDTAVYYCNKRYKYRYYYWGQGTQVTVSS,low polyreactivity
6,QVQLVESGGGFFQAGGRLRLSCAASGRIFGINAMGWYRQAPGKERELVAAISRSGGRTYYADSVKGRFTISRDNGKNTVYFQMNSLKPEDTAVYDCAQGDAHSYSRYDYWGPGTQVTVSS,high polyreactivity
7,QVQLVESGGGFFQAGGSLRLSCAASGNTFGINAMRWYREAPGKERELVAAISWSGDRTYYADSVKGRFTISRDNAKNTVYLQMNSLKPEDTAVYYCAAGKYRFTYYALEYDYWGQGTQVTVSS,low polyreactivity
8,QVQLVESGGGFVQAGGSLRLICAASGSILHSYSMGWYRQAPGKERELVAAISGSGGSTYYADSVKRRFTISRDNAKNTVYLQMNSLKPEDTAVYYCAAVWSRADRYYYWGQGTQVTVSS,low polyreactivity
9,QVQLVESGGGFVQAGGSLRLRCAASGRTFGWYAMGWYRQAPGKERELVAAITWRGGSTYYADSVKGRFTISRDNAKNTVYLQMNSLKPEDTAVYYCAAAAEKRSYYWGQGTQVTVSS,high polyreactivity
10,QVQLVESGGGFVQAGGSLRLSCAASGFIFRVYAMGWYRPAPGKERELVAAISKRGGSTFYADSVKGRFTISRDNANNTVYLQMNSLKPEDTAVYDCAASARLGYDYWGQGTQVTVSS,high polyreactivity
11,QVQLVESGGGFVQAGGSLRLSCAASGFTFGWYALGWYRQAPGKERELVAAMSFGGSRTYYADSVKGRFSISRDNAKNTVYLQLNILNPEDTAVYYCNVVVGSYSANARSHYWGQGTEVTVSS,high polyreactivity
12,QVQLVESGGGFVQAGGSLRLSCAASGGTFYRYAMGWYRQAPGKERELVAVISRGLRTNYADSVKGRFTISRDNAKNTVYFQMNSLQPEDTAVYYCAAHQYRVYRHGFDYWGQGTQVTVSS,high polyreactivity
13,QVQLVESGGGFVQAGGSLRLSCAASGIIVRANAMGWYRQAPGKERELVAAISSSGGSTFYADSVKGRFTISLDNAKNYVYLQMNSLNPEDTAVYYCAAGRTKFAWSEYEYWGQGTQVTVSS,low polyreactivity
14,QVQLVESGGGFVQAGGSLRLSCAASGNIFESYGMGWYRHAPGKERELVATINSSSGSTYYADSVKGRFTISRDNAKNTVYLQMNSLKPEDTAVYYCAAEWYPYPWGYGYWGQGTQVTVSS,low polyreactivity
15,QVQLVESGGGFVQAGGSLRLSCAASGRTFPEYDMGRYRQAPGKERELVAAISTSGGSTYYADSVKGRFTISRDIAKNTVYLQMNSLKPEDTGVYYCAAQVTSIWGFTYAYRYDYWGQGTHVTVSS,low polyreactivity
16,QVQLVESGGGFVQAGGSLRLSCAASGSIFDQYAMGWSRQAPGKERELVAGISSSGSTYADSVKGRFTISRDNAKNTVYLQMNSLKPEDTAVYSCAKDYGVLGGGTGSDRMDYWGQGSQVTVSS,low polyreactivity
17,QVQLVESGGGFVQAGGSLRLSCAASGSTFHGYAMGWYRQEPGKERELVAAITSSGGSTYYADSVKGRFTISRDNAKNTVYLLMNILNPEVTEVYYCAARRYGWGRAQSSASYDHWGQGTQVTVSS,high polyreactivity
18,QVQLVESGGGFVQAGGSLRLSCAASGSTFRYYAMGWYRQAPGTEREFVAAISWSGSSTYYADSVKGRFTISRDNAKNTVYLQMNSLKPEDTAVYYCAARYRYYGYDYWGQGTQVTVSS,high polyreactivity
19,QVQLVESGGGFVQAGGSLRLSCAASGSTFSPNGMGWYRPAPGKERELVAAISSSTGSTNYADSVKGRFTISRDNAKNTVYLQMNSLKPEDTAVYYCAVDPYVHWTTKLYDYWGQGSQVTVSS,low polyreactivity
20,QVQLVESGGGFVQAGGSLRLSCAASGYIFEWNAMGWYRQAPGKERELVASIDSDGSTYYADSVKGRFTISRDNAKNTVYLQMNSLKPEDTAVYYCNARGYTGGEVLAEYDYWGQGTQVTVSS,low polyreactivity
21,QVQLVESGGGFVQAGGSLRLSCAGSGRIYYRYAMGWYSQERGKERELVAAISGSVGSTYADYVKGRFTISRDNAKNTVYLQMKSLKPEDTAFYYCARETYGRYGAYDYWGQGTQVTVSS,low polyreactivity
22,QVQLVESGGGFVQAGGSLRLSSAASGLTFAAYAMGWSRQAPGKERELVASISRRGGSTYYADSVKGRFTISRDNAMNTVYLQMNSLKPEDTAVYYCAARSFWGGLRYDYWGQGTQVTVSS,high polyreactivity

row,Sequence,polyreactivity (PSR sort gate)
1,QVQLVESGGGFVQAGGSLRLSSAASGSTLPGYAMGSYRQAPGKERELVAGISTRGGNTYYADSVKGRFTISRDNAKNTVYLPMNSLKPEDTAVYYCAAGIPRQAYKFYWGQGTQVTVSS,high polyreactivity
2,QVQLVESGGGFVQAGRSLRISSAPSGLMFLGKAMGWYRPAPGKERDLVGGIRALGGTTSYAYSVKGRFTISRDNAKNTVFLQLICKKPEDTELYVCAASYVSSRYFVLRHGDYYWGKGTQVTVSS,low polyreactivity
3,QVQLVESGGGFVQAGVSLRLSCAASGLILVPNTMGWYRQAPGKERELVATITNGGSTNYADSVKGRFTISRDNAKNTVYLQMNSLKPEDTAVSYCNADHSYHIASTRHVDYWGQGTQVTVSS,low polyreactivity
4,QVQLVESGGGIFQAGGSLRLSCSASGNTLVIYAMGWYRQAPVKESELVAAISRAGGTTYYADSVKGRFTISRDKAKNTVYLQMNSLKPEDTEVFYCNAGDHMRKRYGISATWGYGYGYWGQGSQVTVSS,high polyreactivity
5,QVQLVESGGGILQAGGSLRLSCAASGFILSPNTMAWSRQAPGKERELVAAISSDVSTYADSVKGRFTISRDNAKNTVYLQINSLKPEDTAVYYCNADDFGYASYEYWGQATQVTVSS,low polyreactivity
6,QVQLVESGGGILQAGGSLRLSCAASGSTFSGYAMGWYRQATGKERELVAAISSSGGSTYYADSVKGRFTISRDNAKNTVYLKMNSQKPEDTAVYYCAKRRYGKHYTGLTSYYYWGHGTQVTVSS,high polyreactivity
7,QVQLVESGGGIVHAGGSLGLSCAASGRIFYSNAMGWYRQAPGKERELVAAISWNGGRTYYADSVKGRFTISRDNAKNTVYLQMKSLKPEDHAVYYCAVRYARQYYYRSGAYASRYLYNYWGQGTQVTVSS,high polyreactivity
8,QVQLVESGGGIVHAGGSLRLSCAASGIIFLFYAMGWYRQARVKERELVASITWSGGSTYYADSVKGRFTISRDNAKNNVFLQMLSLKPEDTSVYYCAASVNIISYLVHSEFLGGELDYWGQGTQVTVSS,low polyreactivity
9,QVQLVESGGGIVKAGGSLRISCAASGSTFIVNAMGWYRQAPGKERELVAAITEDGDTTYYADSVKGRFTISRDNAKNTVYLQMNSLKPEDTAVYFCAAETYYLDDYWGQGTQVTVSS,high polyreactivity
10,QVQLVESGGGIVPAGGSLRLSCAASGLIFKTYTMGWSRQAPGKEREFVAAITTSGGSTYYADSVKGRFTISRDNAKNTVYLQMNSLKPEDTAVYSCGAVWWKSFQGSSYRMNYWGQGTQVTVSS,high polyreactivity
11,QVQLVESGGGIVPAGGSLRLSCAASGLTFRFNAMGWYRQAPGKERELVADITVSGGRTYYADSVKGRFTISRDNAKNTVYLQMNSLKPEDTAVYYCARRRTVGVTEPFSRGYDYWGQGTQVTVSS,low polyreactivity
12,QVQLVESGGGIVQAGGSLRFSCAASGGTFYRYAMGWYRLAPGNERELVAAISSSGGSTYYAVSVKGRFTISRDNAKNTVYLQMNSLKPEDTAVYYCAAYSFQSHNFDYWGQGSQVTVSS,high polyreactivity
13,QVQLVESGGGIVQAGGSLRFSCAASGSTFLYYAMGWYRLAPGKETEFVADISFSGGSTYYADSVKGRFTSSRDNAKNTVYLQMNSLKPEDTGVYNCAARKKEYKAGNYWGQGTQVNVSS,low polyreactivity
14,QVQLVESGGGIVQAGGSLRISCAASGSIFFGYAMGWYRPATGKERELVADITVGGGSPFYADSVKGRFTISRDNEKNTVYLQMNSLKPDDTAVYYCADDYYTQWLTRYDYWGQGTQVTLSS,low polyreactivity
15,QVQLVESGGGIVQAGGSLRLICAASGSIFDGYAMGWYRQAPGKERELVAAISASGVRTYYADSVKGRFTISRDNAKNTVYLQMKSLKPEDTAVYYGAAAVYYGQSVWYYYWGQGTQVTVSS,high polyreactivity
16,QVQLVESGGGIVQAGGSLRLLCAASGRIFTGNVMGWYRQAPGKERVLVAAISYGGGSTNYADSVKGRFTISRDNAKNTVSLQMNSLIPEDTAVYYCAVLYGYRSSSRYGYDSWGQGSQVTVSS,high polyreactivity
17,QVQLVESGGGIVQAGGSLRLLCAASGSIFLTNAMGWYRQAPGKERQFVAAIDWGGTITYYADSVKGRFTISRDNAKNNVYLQMNSLKPEDTAVYYCAADGYIRQYVTYYYWGQGTQVTVSS,low polyreactivity
18,QVQLVESGGGIVQAGGSLRLRCAASGFIFAVNAKGWYRQAPGKESELVAAISSSGTTNYADSVKGRFTISRDNAKNTVYLQMNSLKPEDTAVYYCNKRWRDKYPQYDYWGLGTQVTVSS,low polyreactivity
19,QVQLVESGGGIVQAGGSLRLRCAASGSIFVPYAMGWYRQAPGKERELVAAISSRGGRTYYADSVKGRFTISRDNAKNTVYLQMNSLKPEDTAVYYCNKTAGSHIPRLEYWGQGTQVTVSS,low polyreactivity
20,QVQLVESGGGIVQAGGSLRLSCAASGFIFGPYTMGWYRQAPGKERELVAAINNSGSTNYADSVKGRFTISRDNAKNTVYLQMNSLKPEDTAVYYCAAEPIIFVRYDYWGQGTHVTVSS,low polyreactivity
21,QVQLVESGGGIVQAGGSLRLSCAASGFIFHLYGMGWYRQAPGKERELVAAISSGGRTYYADSVKGRFTISRDNAKNTVSLQMNSLKPEDTAVYSCAVYVAYLYSYYYWGQGTQVNVSS,low polyreactivity
